Data as given in PMC7672443, “Structural basis of the XPB helicase–Bax1 nuclease complex interacting with the repair bubble DNA” (Nucleic Acids Research, 2020).
Positions count from the first letter of the chain named.

Key:
StXPB-Bax1^ΔC = target: T1, StXPB-Bax1^ΔC (Sulfurisphaera tokodaii, UniProt Q970I2); settings: phosphate in the ATP-binding site of XPB, DNA-free heterodimer; NH4-citrate pH 7.5, PEG3350
T1 construct: gene xpb2

StXPB [1] = target: T2, StXPB (Sulfurisphaera tokodaii, UniProt Q970I2 2-439); test: EMSA; stable complex at high protein:DNA ratio; EMSA: 25 mM Tris-Cl pH 7.5, 100 mM NaCl, 5% glycerol, 1 mM DTT, room temperature 40 min; 0.8 uM forked DNA or 0.3 uM bubble DNA; 4% TBE native gel, ethidium bromide; settings: protein: recombinant; tags: N-terminal His8 (PreScission; removed); 3 nt mismatch bubble
T2 sequence: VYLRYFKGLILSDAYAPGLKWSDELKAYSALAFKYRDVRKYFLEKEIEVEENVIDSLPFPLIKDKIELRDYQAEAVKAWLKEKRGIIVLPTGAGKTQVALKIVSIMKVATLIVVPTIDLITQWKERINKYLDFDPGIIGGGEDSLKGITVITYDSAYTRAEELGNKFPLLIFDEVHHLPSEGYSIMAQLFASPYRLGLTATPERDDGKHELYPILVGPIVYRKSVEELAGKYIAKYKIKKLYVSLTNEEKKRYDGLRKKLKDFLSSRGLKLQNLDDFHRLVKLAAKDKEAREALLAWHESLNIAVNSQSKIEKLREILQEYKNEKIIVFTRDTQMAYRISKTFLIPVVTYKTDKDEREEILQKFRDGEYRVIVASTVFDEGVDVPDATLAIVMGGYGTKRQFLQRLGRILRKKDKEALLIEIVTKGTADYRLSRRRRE

StXPB [2] = target: T2, StXPB; test: EMSA; stable complex; EMSA: 25 mM Tris-Cl pH 7.5, 100 mM NaCl, 5% glycerol, 1 mM DTT, room temperature 40 min; 0.8 uM forked DNA or 0.3 uM bubble DNA; 4% TBE native gel, ethidium bromide; settings: protein: recombinant, tags: N-terminal His8 (PreScission; removed)
StXPB [3] = target: T2, StXPB; test: EMSA; lower affinity than with Bax1; EMSA: 25 mM Tris-Cl pH 7.5, 100 mM NaCl, 5% glycerol, 1 mM DTT, room temperature 40 min; 0.8 uM forked DNA or 0.3 uM bubble DNA; 4% TBE native gel, ethidium bromide; settings: protein: recombinant; tags: N-terminal His8 (PreScission; removed); fork: 22 bp duplex, 10 nt arms

T1 sequence (Q970I1 2-373 partner, one chain of several): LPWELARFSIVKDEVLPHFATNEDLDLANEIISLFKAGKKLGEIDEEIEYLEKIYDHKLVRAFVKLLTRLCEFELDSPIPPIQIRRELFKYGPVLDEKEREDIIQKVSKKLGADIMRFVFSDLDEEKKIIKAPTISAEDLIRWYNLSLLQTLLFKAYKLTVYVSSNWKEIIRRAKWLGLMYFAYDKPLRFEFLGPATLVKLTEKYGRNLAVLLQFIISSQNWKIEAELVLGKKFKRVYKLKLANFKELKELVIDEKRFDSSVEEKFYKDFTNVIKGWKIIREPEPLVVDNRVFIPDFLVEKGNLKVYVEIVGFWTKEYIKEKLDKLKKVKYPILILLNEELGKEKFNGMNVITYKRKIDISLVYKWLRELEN

O=P(O)(O)O [phosphate ion]
X-ray crystallography, 2.96 Å (StXPB-Bax1^ΔC): the ATP binding site of XPB contains a bound phosphate ion

B1: bubble-3 DNA (dsDNA)
DNA 1: TAGTCACAGCTGATTTTGCTCTGCTCCATAGT
DNA 2: ACTATGGAGCAGAGCTTTATCAGCTGTGACTA
binding result (StXPB [1]): binds

B2: bubble-4 DNA (dsDNA)
DNA 1: B1 DNA 1 with G18T
DNA 2: B1 DNA 2 with C15T
binding result (StXPB [2]; 4 nt mismatch bubble): binds

B3: bubble-5 DNA (dsDNA)
DNA 1: B1 DNA 1 with G18T
DNA 2: B1 DNA 2 with C15T, A19T
binding result (StXPB [2]; 32 nt strands, blunt, internal 5 nt T:T mismatch bubble): binds

B4: forked DNA (dsDNA)
DNA 1: B1 DNA 1 with T16G, T17C
DNA 2: TGATACTTCGAGAGCGCAATCAGCTGTGACTA
binding result (StXPB [3]): binds
